Experimental findings from article PMC5218472 (PLoS Biology, 2017) are described below.

One assay concerns ADAM17. Put plainly: PMA-induced ADAM17-mediated IL-6R ectodomain shedding in transiently transfected HEK293 cells, sIL-6R ELISA. The class given is cell-based, human. The following applies: for increase of sIL-6R after PMA (unstimulated = 1), mean: 100 nM PMA 2 h vs DMSO. The text has this: Fig 4 Mutation of Val-356 is sufficient to block proteolysis of the IL-6R and the Asp358Ala variant. (A) Amino-acid residues from Asp-340 to Ala-370 of the human IL-6R. The identified cleavage site between Pro-355 (P1) and Val-356 (P1′) is indicated. (B) Overview of the six different IL-6R cleavage site mutants. Mutations are colored in either green or blue; the amino-acid residues of the wild-type cleavage site are shown in red. (C) HEK293 cells were transiently transfected with expression plasmids encoding the wild-type IL-6R (PV) or the double mutants (IE, DG) as indicated. Cells were either treated with 100 nM PMA for 2 h or DMSO as vehicle control. sIL-6R was precipitated from the supernatant with concanavalin A-covered sepharose beads, and the cells were lysed. Both were analyzed via western blot, and β-actin served as the loading control. One out of three experiments with similar outcomes is shown. (D, E) The experiment was performed as described under (C), but sIL-6R generation was analyzed via ELISA. In (D), the amount of sIL-6R generated after PMA stimulation of the wild-type IL-6R (PV) was set to 100%, and all other values were calculated accordingly. In (E), the amount of sIL-6R without stimulation was considered as constitutive shedding and set to 1, and the increase of sIL-6R was calculated. Data shown are the mean ± SD from at least three independent experiments (*p < 0.05, ns = no significant difference). (F–H) HEK293 cells were transiently transfected with expression plasmids encoding the wild-type IL-6R (PV) or the single mutants (DV, IV, PE, PG) as indicated. The experiments were performed as described in (C) to (E). (I) Overview of the four different IL-6R cleavage site mutants of the IL-6R Asp358Ala variant. Mutations are colored in either green or blue, the amino-acid residues of the wild-type cleavage site are shown in red, and the Asp358Ala single nucleotide polymorphism (SNP) is colored in orange. (J) ADAM17-mediated proteolysis of the IL-6R variants depicted in (I) were analyzed as described in (D). (K–M) Equal numbers of Ba/F3-gp130 cells were incubated for 48 h with increasing amounts (0–100 ng/ml) of either IL-6 or Hyper-IL-6. The stably transduced IL-6R variant is indicated above the diagram. One representative experiment out of three performed is shown (mean ± SD, biological triplicates).
Analysis of IL-6R ectodomain shedding in transiently transfected HEK293 cells or stably transduced Ba/F3-gp130 cell lines by ADAM10 and ADAM17 has been described elsewhere. Analysis of IL-6R proteolysis by CG has been described previously.
The sandwich ELISA, which detects sIL-6R as well as ds-sIL-6R (4-11/Baf227 antibodies) and can be used to quantify total sIL-6R serum levels, was described previously. To specifically detect ds-sIL-6R (either recombinant or in human serum), a similar approach was used (ds6R/Baf227). Both sandwich ELISAs were performed with streptavidin-horseradish peroxidase (R&D Systems, Minneapolis, Minnesota, US) and the peroxidase substrate BM blue POD (Roche, Mannheim, Germany). The enzymatic reaction was stopped by addition of 1.8 M sulfuric acid, and the absorbance read at 450 nm on a Tecan rainbow reader (Tecan, Crailsheim, Germany).
Background: ELISA stands for enzyme-linked immunosorbent assay.

The test system of assay [1] is Ba/F3-gp130-hIL-6R and Ba/F3-gp130-hIL-6R-4N cells. The experiment in a line: IL-6R internalization assay (cell-surface turnover, flow cytometry). The class given is cell-based. The following applies: for IL-6R remaining at the cell surface (0 min = 100), mean: mean of 3. The method, then:
Fig 6 N- and O-linked glycosylation are dispensable for intracellular transport and signaling of the IL-6R. (A–G) Equal numbers of Ba/F3-gp130 cells were incubated for 48 h with increasing amounts (0–100 ng/ml) of either IL-6 or Hyper-IL-6. The stably transduced IL-6R variant is indicated above the diagram. One representative experiment out of three performed is shown (mean ± SD, biological triplicates). (H) Equal numbers of Ba/F3-gp130-hIL-6R and Ba/F3-gp130-hIL-6R-4N cells were labeled with an anti-IL-6R antibody and incubated at 37°C for the indicated time periods. The remaining cell-surface expression of the IL-6R was analyzed via flow cytometry. Data shown are the mean ± SD from three independent experiments.
In order to analyze internalization of the IL-6R, 1 x 10^7 cells were washed in PBS, seeded onto a 10 cm dish in serum-free DMEM, and starved for 2 h at 37°C. Afterwards, cells were again washed with PBS, and the IL-6R was labeled with the 4–11 antibody diluted in FACS buffer (1% BSA in PBS). After 1 h incubation on ice, cells were washed and resuspended in 10 ml serum-free DMEM, seeded onto a 10 cm dish, and shifted back to 37°C. At the time points indicated (0–180 min), 1 ml of the cell suspension was taken from the dish, transferred into a 1.5 ml reaction tube, and kept on ice to inhibit further internalization of the IL-6R. After obtaining the last sample, the cells were washed in cold FACS buffer, and the remaining IL-6R on the cell surface was stained with an APC-conjugated anti-mouse mAb. The cells were washed again and analyzed by flow cytometry using the BD Biosciences FACS Canto II (Becton-Dickinson, Heidelberg, Germany).
(In flow cytometry, cells or beads pass a laser one at a time.)

B1: PV: wild-type human IL-6R, cleavage site Pro-355/Val-356 (protein)
chain: LAPRRCPAQEVARGVLTSLPGDSVTLTCPGVEPEDNATVHWVLRKPAAGSHPSRWAGMGRRLLLRSVQLHDSGNYSCYRAGRPAGTVHLLVDVPPEEPQLSCFRKSPLSNVVCEWGPRSTPSLTTKAVLLVRKFQNSPAEDFQEPCQYSQESQKFSCQLAVPEGDSSFYIVSMCVASSVGSKFSKTQTFQGCGILQPDPPANITVTAVARNPRWLSVTWQDPHSWNSSFYRLRFELRYRAERSKTFTTWMVKDLQHHCVIHDAWSGLRHVVQLRAQEEFGQGEWSEWSPEAMGTPWTESRSPPAENEVSTPMQALTTNKDDDNILFRDSANATSLPVQDSSSVPLPTFLVAGGSLAFGTLLCIAIVLRFKKTWKLRALKEGKTSMHPPYSLGQLVPERPRPTPVLVPLISPPVSPSSLGSDNTSSHNRPDARDPRSPYDISNTDYFFPR
modifications: N-linked glycans at Asn-55, Asn-93, Asn-221, Asn-245 and Asn-350, O-linked glycan at Thr-352 (mapped on sIL-6R shed from transfected HEK293 cells)
For B1, in the assay with ADAM17 (100 nM PMA 2 h, HEK293, ELISA, mean ± SD), the “increase in sIL-6R generation compared to vehicle-treated cells” value is listed as 3.6 ± 1.9 fold. The “sIL-6R in supernatant (PMA-stimulated PV = 100%), mean” value with ADAM17 (Fig 4D, 100 nM PMA, 2 h, mean of at least 3 independent experiments) is listed as 100%; with ADAM17 (Fig 4D, DMSO vehicle, 2 h (constitutive shedding), mean of at least 3 independent experiments), 34.05%; in the assay with ADAM17 (Fig 4G, 100 nM PMA, 2 h, mean of 3), 100%; in the assay on ADAM17 (Fig 4G, DMSO, 2 h, mean of 3) it was 36.7867%. The “increase of sIL-6R after PMA (unstimulated = 1), mean” value in the assay with ADAM17 (Fig 4E, mean) is listed as 3.59 fold; with ADAM17 (Fig 4H, mean of 3) it was 2.73 fold. Besides, the “IL-6R remaining at the cell surface (0 min = 100), mean” value (“IL-6R remaining at the cell surface” for short) is 79.6667 in assay [1] (block 1 (wt), 15 min); 59 in assay [1] (block 1 (wt), 30 min); 46 in assay [1] (block 1 (wt), 60 min); 35 in assay [1] (block 1 (wt), 90 min); 23.6667 in assay [1] (block 1 (wt), 120 min); 16.6667 in assay [1] (block 1 (wt), 150 min). In addition, the “IL-6R remaining at the cell surface” value in assay [1] (block 1 (wt), 180 min) amounted to 13.3333; in assay [1] (block 2, 15 min) it was 85.6667; in assay [1] (block 2, 30 min) it was 65; in assay [1] (block 2, 60 min), 49.3333; in assay [1] (block 2, 90 min), 45; in assay [1] (block 2, 120 min), 35.6667. The “IL-6R remaining at the cell surface” value in assay [1] (block 2, 150 min) is 27.6667; in assay [1] (block 2, 180 min), 24.3333. In addition, the “t1/2 of IL-6R at the cell surface” value in assay [1] (pulse-chase with 4-11 antibody, 37°C, flow cytometry, mean ± SD, n = 3) was 44.1 ± 8.1 min.
